Results as given in PMC9073325.

Substrate: Nc1ncnc2c1ncn2[C@@H]1O[C@H](COP(=O)(O)OP(=O)(O)OP(=O)(O)O)[C@@H](O)[C@H]1O
Experiment: purified protein
Conditions: pH 7.0; 25.0 °C

B1: SOBIR1-KD (Arabidopsis thaliana) (protein)
chain: SIFSPLIKKAEDLAFLENEEALASLEIIGRGGCGEVFKAELPGSNGKIIAVKKVIQPPKDADELTDEDSKFLNKKMRQIRSEINTVGHIRHRNLLPLLAHVSRPECHYLVYEYMEKGSLQDILTDVQAGNQELMWPARHKIALGIAAGLEYLHMDHNPRIIHRDLKPANVLLDDDMEARISDFGLAKAMPDAVTHITTSHVAGTVGYIAPEFYQTHKFTDKCDIYSFGVILGILVIGKLPSDEFFQHTDEMSLIKWMRNIITSENPSLAIDPKLMDQGFDEQMLLVLKIACYCTLDDPKQRPNSKDVRTMLSQIKH
  Km: 19.92 ± 0.69 µM
  kcat: 0.660 ± 0.006 s⁻¹
